# Results reported in US20240270821A1, “GIP/GLP1/GCG TRI-RECEPTOR AGONISTS AND USES THEREOF” (priority 2023, published 2024).
# Where a chain is given by its changes, count along the chain named.
# T1: human GIP receptor (human) (UniProt P48546)
# T1 sequence (looked up): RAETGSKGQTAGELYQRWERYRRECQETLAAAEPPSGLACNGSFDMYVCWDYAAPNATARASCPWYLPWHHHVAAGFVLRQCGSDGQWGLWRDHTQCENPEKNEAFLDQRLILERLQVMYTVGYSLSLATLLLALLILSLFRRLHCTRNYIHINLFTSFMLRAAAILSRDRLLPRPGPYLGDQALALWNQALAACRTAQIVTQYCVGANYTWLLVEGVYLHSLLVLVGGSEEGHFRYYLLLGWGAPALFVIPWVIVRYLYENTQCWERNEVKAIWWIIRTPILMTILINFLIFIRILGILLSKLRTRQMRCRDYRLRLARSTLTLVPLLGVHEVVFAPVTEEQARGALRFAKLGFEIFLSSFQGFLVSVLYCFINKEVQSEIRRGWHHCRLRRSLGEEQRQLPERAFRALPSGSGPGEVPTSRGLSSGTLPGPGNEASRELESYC
# B1: Example 64 (peptide)
# chain: YXQGTFTSDFSXXLDKKAQXAFIEYLLEGGPSSGAPPPGGSG
# modifications: synthetic construct; SITE 2: note = 2-Aminoisobutyric Acid; SITE 12: note = L-ornithine; SITE 13: note = alpha-methyl-leucine; SITE 17: note = Lysine is chemically modified through conjugation of the epsilon-amino group of the Lysine side chain with (2-[2-(2-Amino-ethoxy)-ethoxy]-acetyl)-(gamma-Glu)
# B2: Example 65 (peptide)
# chain: B1 chain with G42E
# modifications: synthetic construct; SITE 2: note = 2-Aminoisobutyric Acid; SITE 12: note = L-ornithine; SITE 13: note = alpha-methyl-leucine; SITE 17: note = Lysine is chemically modified through conjugation of the epsilon-amino group of the Lysine side chain with (2-[2-(2-Amino-ethoxy)-ethoxy]-acetyl)-(gamma-Glu)
# B3: Example 697 (peptide)
# chain: YXQGTXTSDXXIXLDXKAQXXFIEXLIEGGPSSGEPPPEGTGE
# modifications: synthetic construct; SITE 2: note = 2-Aminoisobutyric Acid; SITE 6: note = alpha-methyl-2-fluoro-L-phenylalanine; SITE 10: note = 3-(4-Pyridyl)-L-alanine; SITE 11: note = alpha-methyl-L-serine; SITE 13: note = alpha-methyl-leucine; SITE 16: note = L-ornithine; SITE 17: note = Lysine is chemically mo
# B4: Example 660 (peptide)
# chain: YXQGTXTSDXSILLDKKAQXAFIEYLEEGGPSSGAPPPEGTGE
# modifications: synthetic construct; SITE 2: note = 2-Aminoisobutyric Acid; SITE 6: note = alpha-methyl-2-fluoro-L-phenylalanine; SITE 10: note = 3-(4-Pyridyl)-L-alanine; SITE 17: note = Lysine is chemically modified through conjugation of the epsilon-amino group of the Lysine side chain with (gamma-Glu)2-CO-(CH2)1
# B5: Example 665 (peptide)
# chain: B4 chain with K16X, Y25X, E39S
# modifications: synthetic construct; SITE 2: note = 2-Aminoisobutyric Acid; SITE 6: note = alpha-methyl-2-fluoro-L-phenylalanine; SITE 10: note = 3-(4-Pyridyl)-L-alanine; SITE 16: note = L-ornithine; SITE 17: note = Lysine is chemically modified through conjugation of the epsilon-amino group of the Lysine side chai
# B6: Example 669 (peptide)
# chain: B4 chain with Y25X, E39S
# modifications: synthetic construct; SITE 2: note = 2-Aminoisobutyric Acid; SITE 6: note = alpha-methyl-2-fluoro-L-phenylalanine; SITE 10: note = 3-(4-Pyridyl)-L-alanine; SITE 17: note = Lysine is chemically modified through conjugation of the epsilon-amino group of the Lysine side chain with (2-[2-(2-Amino-ethoxy))
# B7: Example 664 (peptide)
# chain: B4 chain with Y25X, E39S
# modifications: synthetic construct; SITE 2: note = 2-Aminoisobutyric Acid; SITE 6: note = alpha-methyl-2-fluoro-L-phenylalanine; SITE 10: note = 3-(4-Pyridyl)-L-alanine; SITE 17: note = Lysine is chemically modified through conjugation of the epsilon-amino group of the Lysine side chain with (gamma-Glu)2-CO-(CH2)1
# B8: Example 662 (peptide)
# chain: B4 chain with E39S
# modifications: synthetic construct; SITE 2: note = 2-Aminoisobutyric Acid; SITE 6: note = alpha-methyl-2-fluoro-L-phenylalanine; SITE 10: note = 3-(4-Pyridyl)-L-alanine; SITE 17: note = Lysine is chemically modified through conjugation of the epsilon-amino group of the Lysine side chain with (2-[2-(2-Amino-ethoxy))
# B9: Example 666 (peptide)
# chain: B4 chain with Y25X, E39S, T41S
# modifications: synthetic construct; SITE 2: note = 2-Aminoisobutyric Acid; SITE 6: note = alpha-methyl-2-fluoro-L-phenylalanine; SITE 10: note = 3-(4-Pyridyl)-L-alanine; SITE 17: note = Lysine is chemically modified through conjugation of the epsilon-amino group of the Lysine side chain with (gamma-Glu)2-CO-(CH2)1
# B10: Example 667 (peptide)
# chain: B4 chain with Y25X, E39S, T41E
# modifications: synthetic construct; SITE 2: note = 2-Aminoisobutyric Acid; SITE 6: note = alpha-methyl-2-fluoro-L-phenylalanine; SITE 10: note = 3-(4-Pyridyl)-L-alanine; SITE 17: note = Lysine is chemically modified through conjugation of the epsilon-amino group of the Lysine side chain with (gamma-Glu)2-CO-(CH2)1
# B11: Example 663 (peptide)
# chain: B4 chain with E27X, E39S
# modifications: synthetic construct; SITE 2: note = 2-Aminoisobutyric Acid; SITE 6: note = alpha-methyl-2-fluoro-L-phenylalanine; SITE 10: note = 3-(4-Pyridyl)-L-alanine; SITE 17: note = Lysine is chemically modified through conjugation of the epsilon-amino group of the Lysine side chain with (2-[2-(2-Amino-ethoxy))
# B12: Example 661 (peptide)
# chain: B4 chain with E27X, E39S
# modifications: synthetic construct; SITE 2: note = 2-Aminoisobutyric Acid; SITE 6: note = alpha-methyl-2-fluoro-L-phenylalanine; SITE 10: note = 3-(4-Pyridyl)-L-alanine; SITE 17: note = Lysine is chemically modified through conjugation of the epsilon-amino group of the Lysine side chain with (gamma-Glu)2-CO-(CH2)1
# B13: Example 668 (peptide)
# chain: B4 chain with Y25X, E39S, T41G
# modifications: synthetic construct; SITE 2: note = 2-Aminoisobutyric Acid; SITE 6: note = alpha-methyl-2-fluoro-L-phenylalanine; SITE 10: note = 3-(4-Pyridyl)-L-alanine; SITE 17: note = Lysine is chemically modified through conjugation of the epsilon-amino group of the Lysine side chain with (gamma-Glu)2-CO-(CH2)1
# B14: Example 702 (peptide)
# chain: YXQGTXTSDXXIXLDXKAAXEFIEXLIEGGPSSGAPPPSGSE
# modifications: synthetic construct; SITE 2: note = 2-Aminoisobutyric Acid; SITE 6: note = alpha-methyl-2-fluoro-L-phenylalanine; SITE 10: note = 3-(4-Pyridyl)-L-alanine; SITE 11: note = alpha-methyl-L-serine; SITE 13: note = alpha-methyl-leucine; SITE 16: note = L-ornithine; SITE 17: note = Lysine is chemically mo
# B15: Example 703 (peptide)
# chain: B14 chain with S41E
# modifications: synthetic construct; SITE 2: note = 2-Aminoisobutyric Acid; SITE 6: note = alpha-methyl-2-fluoro-L-phenylalanine; SITE 10: note = 3-(4-Pyridyl)-L-alanine; SITE 11: note = alpha-methyl-L-serine; SITE 13: note = alpha-methyl-leucine; SITE 16: note = L-ornithine; SITE 17: note = Lysine is chemically mo
# B16: Example 720 (peptide)
# chain: B14 chain with A35E
# modifications: synthetic construct; SITE 2: note = 2-Aminoisobutyric Acid; SITE 6: note = alpha-methyl-2-fluoro-L-phenylalanine; SITE 10: note = 3-(4-Pyridyl)-L-alanine; SITE 11: note = alpha-methyl-L-serine; SITE 13: note = alpha-methyl-leucine; SITE 16: note = L-ornithine; SITE 17: note = Lysine is chemically mo
# Molecular target: hGLP-1R (Homo sapiens, UniProt P43220)
# Assay: cell-based or functional assay
# Sequence of hGLP-1R (P43220 24-463): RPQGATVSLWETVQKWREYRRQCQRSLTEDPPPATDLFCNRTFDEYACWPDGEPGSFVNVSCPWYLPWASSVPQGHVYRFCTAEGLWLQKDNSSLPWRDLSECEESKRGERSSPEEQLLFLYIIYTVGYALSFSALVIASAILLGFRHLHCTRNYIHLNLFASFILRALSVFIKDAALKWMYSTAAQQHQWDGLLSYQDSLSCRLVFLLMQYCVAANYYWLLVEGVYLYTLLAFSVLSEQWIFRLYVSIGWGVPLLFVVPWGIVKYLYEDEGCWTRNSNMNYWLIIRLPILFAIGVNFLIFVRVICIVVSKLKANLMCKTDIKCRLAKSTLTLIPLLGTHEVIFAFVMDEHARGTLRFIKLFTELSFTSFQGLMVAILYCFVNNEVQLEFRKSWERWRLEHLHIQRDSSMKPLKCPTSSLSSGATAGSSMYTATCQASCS
Binder,Relative cAMP EC50,"cAMP Rel EC50, nM (in the presence of 1% HSA)",cAMP Rel EC50 (1% HSA)
B1,4.08 nM,397 nM,
B2,4.21 nM,462 nM,
B3,0.235 nM,,18.2 nM
B4,,,76.9 nM
B5,,,32.8 nM
B6,,,27.3 nM
B7,,,27.7 nM
B8,,,84.5 nM
B9,,,32.3 nM
B10,,,33 nM
B11,,,79 nM
B12,,,50.9 nM
B13,,,27.1 nM
B14,0.243 nM,,28.4 nM
B15,0.233 nM,,27.1 nM
B16,0.245 nM,,28.3 nM

# Molecular target: human glucagon receptor (human) (UniProt P47871)
# Assay: cell-based or functional assay
# Sequence of human glucagon receptor (human) (P47871 26-477): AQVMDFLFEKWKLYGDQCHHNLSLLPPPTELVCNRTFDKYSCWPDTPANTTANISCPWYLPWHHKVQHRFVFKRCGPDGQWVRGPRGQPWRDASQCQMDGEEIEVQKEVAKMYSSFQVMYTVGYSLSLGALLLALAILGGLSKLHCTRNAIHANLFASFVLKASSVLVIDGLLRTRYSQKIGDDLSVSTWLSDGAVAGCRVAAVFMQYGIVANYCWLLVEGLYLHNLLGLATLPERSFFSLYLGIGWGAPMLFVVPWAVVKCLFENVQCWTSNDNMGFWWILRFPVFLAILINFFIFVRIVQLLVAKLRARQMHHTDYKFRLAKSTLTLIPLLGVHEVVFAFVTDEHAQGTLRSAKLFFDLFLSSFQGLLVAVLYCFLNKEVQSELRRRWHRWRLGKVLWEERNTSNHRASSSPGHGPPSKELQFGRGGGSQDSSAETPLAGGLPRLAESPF
Binder,Relative cAMP EC50,"cAMP Rel EC50, nM (in the presence of 1% HSA)",cAMP Rel EC50 (1% HSA)
B1,4.94 nM,626 nM,
B2,6.49 nM,808 nM,
B3,1.71 nM,,130 nM
B4,,,455 nM
B5,,,285 nM
B6,,,173 nM
B7,,,179 nM
B8,,,561 nM
B9,,,224 nM
B10,,,215 nM
B11,,,226 nM
B12,,,160 nM
B13,,,203 nM
B14,1.5 nM,,196 nM
B15,1.56 nM,,201 nM
B16,1.78 nM,,239 nM

# Molecular target: T1, human GIP receptor (human)
# Assay: cell-based or functional assay
Binder,Relative cAMP EC50,"cAMP Rel EC50, nM (in the presence of 1% HSA)",cAMP Rel EC50 (1% HSA)
B1,0.309 nM,24.9 nM,
B2,0.739 nM,30.2 nM,
B3,0.0109 nM,,0.607 nM
B4,,,4.64 nM
B5,,,2.1 nM
B6,,,1.41 nM
B7,,,1.18 nM
B8,,,4.69 nM
B9,,,1.39 nM
B10,,,1.46 nM
B11,,,10.2 nM
B12,,,4.62 nM
B13,,,1.69 nM
B14,0.0116 nM,,1.25 nM
B15,0.0101 nM,,0.961 nM
B16,0.0103 nM,,1.02 nM
